Source: PMC4218819

How the values were obtained:
Test in all cases: EMSA
Settings in all cases: 12 mM HEPES-KOH pH 7.6, 10 mM MgCl2, 200 mM NaCl, 4 mM Na2HPO4, 4 mM NaH2PO4, 0.4 mM EDTA, 1 mM DTT, 0.5% BSA, 10% glycerol, 200-fold poly(dI-dC), 1 nM DNA …
[1] = system: AraR WT (Bacillus subtilis)
[2] = system: AraR E30A (Bacillus subtilis)
[3] = system: AraR Y5F (Bacillus subtilis)
[4] = target: AraR WT (Bacillus subtilis) (UniProt P96711)
[5] = target: AraR E30A E30A (Bacillus subtilis) (UniProt P96711)
[6] = target: AraR Y5F Y5F (Bacillus subtilis) (UniProt P96711)

ORA1 G5->T was tested, and the Kd [1] was 34.5 10^-8 M, the Kd [2] was 74.8 10^-8 M and the Kd [3] was > 200 10^-8 M.

For ORA1 T6->G, the Kd [1] was 5.6 10^-8 M, the Kd [2] was 25.4 10^-8 M and the Kd [3] was 47.6 10^-8 M.

“GATTGACAGTATAATAGTCAATTACTATAATAAAATTGGTCGTACAAATATTTATTTATAGGTTTATTTTCTATCATTAGTACGTATCTTTTGTATTTGAAAGCGTTTTATTTTATGAGAAAGGG (double strand) [ORA1 T6->G]” was tested, and the Kd [4] was 56 nM, the Kd [5] was 254 nM and the Kd [6] was 476 nM.

“GATTGACAGTATAATAGTCAATTACTATAATAAAATTGTTCGTACAAATATTTATTTATAGGTTTATTTTCTATCATTAGTACGTATCTTTTGTATTTGAAAGCGTTTTATTTTATGAGAAAGGG (double strand) [araABDLMNPQ-abfA promoter ORA1-ORA2 WT]” showed a Kd [4] of 27 nM, a Kd [5] of 198 nM and a Kd [6] of 274 nM.

In the case of ORA1 A1->C, the Kd [1] is reported as 7.4 10^-8 M, the Kd [2] is reported as 67.5 10^-8 M and the Kd [3] is reported as 33.1 10^-8 M.

“GATTGACAGTATAATAGTCAATTACTATAATAAAATTGTTCGTACAAAGATTTATTTATAGGTTTATTTTCTATCATTAGTACGTATCTTTTGTATTTGAAAGCGTTTTATTTTATGAGAAAGGG (double strand) [ORA1 T16->G]” gave a Kd [4] of 110 nM, a Kd [5] of 347 nM and a Kd [6] of 355 nM.

For araABDLMNPQ-abfA promoter ORA1-ORA2 WT, the Kd [1] was 2.7 10^-8 M, the Kd [2] was 19.8 10^-8 M and the Kd [3] was 27.4 10^-8 M.

“GATTGACAGTATAATAGTCAATTACTATAATAAAATTTTTCGTACAAATATTTATTTATAGGTTTATTTTCTATCATTAGTACGTATCTTTTGTATTTGAAAGCGTTTTATTTTATGAGAAAGGG (double strand) [ORA1 G5->T]” showed a Kd [4] of 345 nM and a Kd [5] of 748 nM.

For ORA1 T16->G, the Kd [1] was 11 10^-8 M, the Kd [2] was 34.7 10^-8 M and the Kd [3] was 35.5 10^-8 M.

“GATTGACAGTATAATAGTCAATTACTATAATAACATTGTTCGTACAAATATTTATTTATAGGTTTATTTTCTATCATTAGTACGTATCTTTTGTATTTGAAAGCGTTTTATTTTATGAGAAAGGG (double strand) [ORA1 A1->C]” showed a Kd [4] of 74 nM, a Kd [5] of 675 nM and a Kd [6] of 331 nM.
